In this test the target is recombinant transferrin receptor 1 (TfR1) ectodomain (residues C89-F763) (UniProt Q62351 89-763). Put plainly: BLI. For orientation: Biolayer interferometry detects binding as a change in optical thickness at a sensor tip.

Where no end group is shown, it is not given here.

Sequence of recombinant transferrin receptor 1 (TfR1) ectodomain (residues C89-F763) (Q62351 89-763): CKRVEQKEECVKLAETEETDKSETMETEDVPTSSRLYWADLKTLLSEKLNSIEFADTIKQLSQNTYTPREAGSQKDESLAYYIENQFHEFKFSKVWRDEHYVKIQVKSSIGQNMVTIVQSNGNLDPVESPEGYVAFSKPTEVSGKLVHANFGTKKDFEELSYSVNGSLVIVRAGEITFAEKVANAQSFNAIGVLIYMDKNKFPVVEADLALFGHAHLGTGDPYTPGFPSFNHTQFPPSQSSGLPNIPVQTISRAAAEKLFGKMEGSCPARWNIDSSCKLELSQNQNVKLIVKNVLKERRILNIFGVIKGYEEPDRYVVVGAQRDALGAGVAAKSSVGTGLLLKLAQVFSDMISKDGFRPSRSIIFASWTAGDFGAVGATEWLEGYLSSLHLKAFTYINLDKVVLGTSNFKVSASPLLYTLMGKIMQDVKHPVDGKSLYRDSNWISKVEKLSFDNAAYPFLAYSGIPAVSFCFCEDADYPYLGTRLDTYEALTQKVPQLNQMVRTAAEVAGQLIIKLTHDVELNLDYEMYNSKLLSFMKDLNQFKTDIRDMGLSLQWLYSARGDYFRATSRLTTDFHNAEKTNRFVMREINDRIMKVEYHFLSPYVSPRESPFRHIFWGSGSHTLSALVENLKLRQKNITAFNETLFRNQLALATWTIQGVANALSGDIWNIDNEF

B1: T12, 12-mer peptide that binds transferrin receptor 1 (peptide)
peptide: THRPPMWSPVWP
modifications: also: biotin, position not given here
What is called Kd is a measure of binding affinity in units of concentration. In the case of B1, the Kd worked out at 26 nM.
